Data on one substance can be found in article PMC8050384.

The assay concerns the target transmembrane tumor necrosis factor (tmTNF) knock-in mutant, on bone-marrow-derived macrophages of 3TG mice (TNFR1-/-, TNFR2-/-, tmTNF KI/KI) (mouse (endogenous in BMDMs)) (UniProt P06804).

As for “etanercept, a soluble form of TNFR2 coupled to human Fc domain (from UniProt P20333 23-257) (Fc fusion)”, the internalization score of ETA-488 in 3TG BMDMs at 20 min, imaging cytometry was 0.73.
